These results are taken from the domain aggregation screens of Martell et al. (2025).

A short description of this series: soluble fraction after stress (log2 fold change); higher = more stays soluble; pooled small domains, quantitative proteomics. The note with it: stress: 50 degC. Put shortly: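 Pooled custom libraries of small protein domains were each held under stress at 50°C. The read-out, high-throughput quantitative proteomics, tracked how much of each protein stayed soluble. This is reported as a base-two log fold change used to indicate aggregation propensity. Higher values mean more protein remains in solution.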

“HMDVNMLVTGMLHKGEKSFVRVSFLRGKDWAEGIVPDAKIEKSQGFMEEEVARLEAYLLEQKSMIMEQA”: the “soluble fraction (log2)” value was -1.32.
The same measure for “HMNQKKFIQADYEDRLFDHLAFEVKDMEKIISMMRREKFTITDEPFRLSPTGSLIAFVEDPDRTLIELIER”: -0.32; for “HMSNMWVWSKLSGIQWMDAWEDRFHGNPNTVITRLKTNKTVRVEVYTETEQEALDIKKLFGGSIRKLV”: -2.96; for “HMEKIRIQKYLSERGVMSRRAADSALAEGRIAVNGVTARPGDKIDPSSDTLTIDGRIVTTGTAP”: 0.00802.
For “HMDEEAIELTQEVMKLPPKQREVILLYYYHGLTGKEIAKALGISGAAVSKRLKQAKNQLHFALK”, the “soluble fraction (log2)” value is -0.0921.
On to “HMRIATVTPIEEDQASDRVVAVYNDIKSTKQIDFIPNFWKVIAVNPDLLEQVWGQLKTLMHPEEVG”, for which the “soluble fraction (log2)” value was -0.659.
The same measure for “HMERLKYSQVVDLFKGEQVKSFVLDESNQLKMELQDGSTVSYKLRSFEQFYLDLSDTVKEQKESGIITDYD”: -0.746; for “HMVVVPDVKGLKIEEAAEFFKNNNLHYNVIDSVFSKDVEPGAIVELSPLAGSKVKEGRIVFITVNALTS”: -0.651; for “HMDNPPDRAEIEQMLKDAGLTPEADAMAALSDLARTLDPGDFRQTLEKITLYKLGDSTPIGLDDIAAGAP”: -0.0256.
The same measure for “HMSRYQDIANDIEKDIIEKKYTRKLPEQFELAQKYQTSRVTIVHALKILQNKKLIRTVKGHGTFITS”: -1.4; for “HMAIELTPRQLDIIELVRKHAPITGEQIAELLGVTRPSIRSDLGLLVMLGYIDAKPKVGYFAGPRM”: -0.597; for “HMDNVQLRNFAIKATEASIIYLDQEQRNFFWYNNNKKLMTVPFDENPYSAFAAYLKTDEGSEVYKAIEKKF”: -1.68.
For the sequence “HMIINFDAIKLTTELNKYKRHKAIPNTFFDGTYTILDVRELYNDLTPKAQKIADELIEHYNVDVK”, the “soluble fraction (log2)” value was -1.88.
As to “HMAPASADQLIDQLNEKVKAKDDKGVAALLTAAQTKMAELAQKDPKEAQAYVAKLQQWMQSNSENIKAALK”, the “soluble fraction (log2)” value is 0.157.
As to “HMTPDGNATVWSANGYGVRLRTGPGKGYAIIGVYSVGTTVKVLERGPAGGWDHIQVGSRVGYMMNEFLHYY”, the “soluble fraction (log2)” value is -1.69.
On to “HMGRRRAAPQEPLRQFPASPVTGQPIKLLLGQYGPYVTDGTTNASLPKGSSPDELTFEQATQLLAERALRG”, for which the “soluble fraction (log2)” value stood at 0.109.
With “HMKDEHYLYIKARVDNGDYPHLSELKSAEEIELVMPKLLQDGIVEFNKETGEYTIGEDVKAEIERL”, the “soluble fraction (log2)” value was determined as 0.108.
Under “HMFDTVTIGRKIAELRKAHNMTQFELADALGISFQAVSNWERGASMPDISKLPELAEIFGVTIDEVLGK” stands -0.839; under “HMTNIELYQRLLNLGFTPAQAKILLVQYDETRLTDNLNYVDFKKQQGNIENLPAYTTTIIKKDVRL”, -0.389.
Under “HMEPEWVINTDGSNLNEILAIDEVDSRKTFSNDLQEVYRTFGIEAARQILVQEIDAVIESSGA” stands 0.199.
Consider “HMKFINISIDKSGNLFINKKSIKFQDLKYNVVNLVDESKNLVVLNADENISHGYVISVLDVLRSIDGLKLA”, for which the “soluble fraction (log2)” value is -2.18.
The same measure for “HMEKSQIHLIHTRYVNPEQLVPILSMVIPAENIYVKSDSNLIIINGSSEMLREVESIVSKLDVPS”: 0.0228.
Under “HMTPPAQQPHEGLPTDETATDAKTLVQKSRWWLEEEQRQREAGNTAYAERIRLALIQLLYRAERA” stands 0.0784.
The same measure for “HMLDEIAGQKVRVLEEINNSEGTGKVMYRGVEWMARSVDDAVMAKDSIVTVQSISGVKLMVT”: -0.0685; for “HMSTSERLKQVMEVKGFNLKTFSEQADIPYRTLQNYILTNREPSAESLAKLHSQLGINLNWLMSGKGEMF”: -0.283; for “HMQNNKITIYISGAVNRPGIVTIESDKRLYDAVELLGGTTKEADLNGVNLSVRLEDEQHYIIPKIGEA”: -0.0996.
Turning to “HMTEEPISDGIKKLVEEWENIEGNLIMIFHGIQKHYGYVPRNVAKYVSEAIDVPLTRIYEILTFYNYFTM”, the “soluble fraction (log2)” value worked out at 0.142.
With “HMSSQWWYSAGGERKGPVDFATLRGLYVQGAIDGRTLAWREDMQGWEAVNDIPDLEPLRRAVPPEL”, the “soluble fraction (log2)” value is -0.0348.
The same measure for “HMDVQGFVMDLDKPLDKEPIVEGFELKLEDSLTLVAAVNKDKSINSLFDELSKLGIKVKSMRNPP”: -0.0252; for “HMEFTKSPLDEIAGVGPARKRALLAAFGTAKAVSQAALADLEKTPGVNAATARLVYAHFHEK”: -0.143; for “HMVGDLPPQELRVFELIGDGLSNREIADEMILAEKTIKNYVTSLLQKLGMQRRTEAAAFAARLDER”: -0.0396.
Regarding “HMYRIGELAKLADVTPDTIRYYEKQQMMDHDVRTEGGFRLYSDNDLQRLKFIRYARQLGFTLEAIRELLSI”, the “soluble fraction (log2)” value was -1.81.
As to “HMRSSNEAVSQRRDKILDYISATGRTSTEIVAKEFGVSVMTARRDLLYLMEKRLISKSSSGLFKVDNN”, the “soluble fraction (log2)” value was -2.42.
Under “HMNGLPDLSRYTGVSIVDGLASVGSDSSFAYRAKIAETLGISDYKGSAGQNLEMIRKLGGKV” stands -0.291; under “HMNVGKYILTLAAKEGYSQSDVARRTGISRQMLSYIIAGERKLTLPQALKIESLLSLKTGTLILMQDED”, -3.41; under “HMDAPLIIAETRVDVPDATVSDAVMMLDLRNTNALLFKNSGSGVLNMVYRRGDGTIGWGEPQ”, -0.0172.
Under “HMWTKKELWNAIAKLPKKQRTVVMMRIAQNLPYKDISEITGMSIGSAKVNYHHAVNSLKQWLS” stands -0.59; under “HMSLTEESAKSLIGLTENEAVKVAAERGWTVRVAMRDGEAFMLTQDYSENRVNLTVMKTLVTAVTI”, -0.273; under “HMVGQIISNARKQEKMTQSELAEKVGTNKTYISRIEKGVIEPGVGLFFRIIDALGLKIEIVKP”, -1.25.
“HMELLTNPLTGREVEVLTLMALGQTNHEIARQLYLATGTVKAHTSSIYRKLDVANRTEAVARARQLGIL”: the “soluble fraction (log2)” value was -1.1.
As for “HMIKKLDIEPIIKSVVDDFNNIYKLKRGITISYLNDGKNKYFINGIENRIEQIIANLLDNSISFSEDNKDV”, the “soluble fraction (log2)” value came out at 0.0041.
Consider “HMGIRYQLADDVTDEQITAMTGKKAKIAAAIKAAGSAVSKMNVAGEMGYDKQNPINKDFMELVDAGIIVPS”, for which the “soluble fraction (log2)” value amounted to 0.00228.
Consider “HMEVFGDTKEEQMIIDILKLGITDLEHLQAKSMLEPAIFSQTLTMLEISGKIRPLGAGHWTL”, for which the “soluble fraction (log2)” value was -1.04.
The same measure for “HMSDPTDRLVLEAALKALGEEERQVVLLHAASGLKHREIARDLGLPLSTVLSRYSRALKKLQRYLTEEGVH”: -0.77; for “HMHVLAVDEALHKLTELNELHAKIVEMRFFSGMTVQEVADELGVSKRKIESEWTMIKAWLRKELN”: -0.665; for “HMQLPIGDVKLSVEHLSSGTALQDISFEVHRGEIFGFLGLVGAGRSETAETIFGLREKTDGKISIDGTVL”: -0.214.
With “HMVAREAYTTQNLTDVFSISRQAVEKRAKREGWQSVPRKGRGGGKLWVVSSMPAETRDLLASLLLRK”, the “soluble fraction (log2)” value is -0.609.
The same measure for “HMTIYPFNPNYLKDYQAYRVGLSLKEIDALLDFRSSGQWINSAEDFQRITGVSDSVLEQLIPYFKFS”: -2.49; for “HMPSLILADEPTGNLDSRNSSEVIALLKNASKRYAQTIIMITHNRSIAQSADRVLQVSDGVLTDMG”: 0.0494.
Regarding “HMAGTKRAENIEIQKLTEVLEARLDSVGFFWPDHKAESMIMTLRNMISRLPLTEADVRVFHGIIKSLADK”, the “soluble fraction (log2)” value was -0.527.
“HMHKFMEQNQDRRLSRMKELIGILSEAAKTYYQESREIMSNFQYDRMYDELLELEKETGVVMAGSPTQKV”: the “soluble fraction (log2)” value is -6.44e-05.
In the case of “HMRDKSITFSEFVKLLDEGQIQKVTLTGNEILGTQKSGDKFRTYAPPQYEGLGNKLVERSVEVTAKE”, the “soluble fraction (log2)” value is 0.207.
Under “HMNSKMTYSELITSMENKEVESVKISSSGDVASVKLKNSKTEKEVKIPSLDSFMTYTEQYLKTGEITLEE” stands 0.175; under “HMNDTLGVNIKRLRKEKGMTQDEVAKAVYTTRYNILRYESGKMTPSSEVIERLEKALGVPTGSLAQ”, -0.332.
Under “HMWTPLVVAVLIGGTHRFGELRAAVGGITPKVLTETLRSMERDGLVVREQTPGVPPRVDYALTPLGA” stands -0.319.
Regarding “HMHKLTIEEALNYKTPANAGGPYSGKPFRDIYDQRGKAAVISFAKYYLSKATPEDPMVEVYRTLLDGAMEL”, the “soluble fraction (log2)” value was -0.875.
Under “HMLPPHMEVRAIMILDKRPMALMNIEGEGDGLIVSPGYRFGDGRGRVVSITQTKVVVLWAGTSMEL” stands -2.28; under “HMYMKMNDRIRSRRKELKMTQSVLAKLVGVNRVTITGWESGDYKPGGENLQALAAALEKTPQWLLDGKD”, -0.996; under “HMRNTETMKEIQAFVEDYFFEYHQSPSMQKVADAIGTSKSTAYYYVMEMARNGMLHYDGKTIETPHTQKS”, -1.09.
On to “HMADPLQLLEQQRQDYIQAVTEYLNSHPNAKPIWDVMKKDAGYGDMKLTDIPLGILKKLYITLT”, for which the “soluble fraction (log2)” value was -0.356.
For “HMNEPSSYGYAISVALDRNGLGTVKGGTLYPLLARLEQAAHVETRWEAGDGGPGRKYYTITDSGRS”, the “soluble fraction (log2)” value was -0.201.
Regarding “HMEDDRMLVWFFRKSIQNGAQSEAEGRPIFEGKDYVHIQQPGERDYIEREAHQGDIGRWPRHWQAYQEGR”, the “soluble fraction (log2)” value was -0.329.
Under “HMDIVEIYVGEEDGERIDSYLAQELNNVSRSYVQGLIKNQLITVNGNHVKPKHIVKEGEHIIVNIPPPKV” stands 0.24; under “HMDTFYKNLSKKIKTIREKLSFSQEALAKELGISRVAISQIENGDRKISAEEIAKLSRVFNVPTDILLN”, 0.187; under “HMGSEISYSEFLNRVEQGQVAAVRLDGEQIFITGPTGEAYQTIQPRNTDVLPDLREAGVEIQAAPQ”, -0.0723.
With “HMNMLGEQVRNIRKSRGFTLKALAEQTGLSIGYISQIERNLTDPSLSTLRKISAALDVPTYLFMG”, the “soluble fraction (log2)” value was -1.55.
As for “HMFDENVKLIENEYDVSIISRGSELKVMGDVENVDKAARALRSMLAMINKGESLTEQNVRYVLTLVNEGNE”, the “soluble fraction (log2)” value was -0.527.
The same measure for “HMAYRLDVRNQTKGTYLVIQKKYWDKEKKQSRTKHHMSLGYVHDLQKLYSDPITHYKEVINQMNAEEKG”: -1.54.
